Laboratory results reported in patent CN113121686A (MABWELL SHANGHAI BIOTECHNOLOGY CO LTD, dated 2021).

T1: B7H3-His (human, UniProt Q5ZPR3 29-239)
T1 construct: range 29-239; not shown: His tag
T1 sequence (looked up): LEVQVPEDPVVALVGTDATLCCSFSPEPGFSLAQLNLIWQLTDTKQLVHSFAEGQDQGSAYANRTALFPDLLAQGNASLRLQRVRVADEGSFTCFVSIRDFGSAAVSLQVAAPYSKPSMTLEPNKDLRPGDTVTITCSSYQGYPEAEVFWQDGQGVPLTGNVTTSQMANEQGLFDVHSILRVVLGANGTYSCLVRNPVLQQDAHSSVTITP

T2: PD-L2-hFc (human, UniProt Q9BQ51 20-220)
T2 construct: range 20-220; not shown: human Fc (hFc)
T2 sequence (looked up): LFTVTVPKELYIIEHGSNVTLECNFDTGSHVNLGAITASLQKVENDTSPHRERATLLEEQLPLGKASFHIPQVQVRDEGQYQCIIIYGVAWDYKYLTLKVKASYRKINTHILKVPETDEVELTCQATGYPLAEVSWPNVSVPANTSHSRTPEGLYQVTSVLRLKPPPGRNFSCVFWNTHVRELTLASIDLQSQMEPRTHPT

T3: CTLA4-His (human, UniProt P16410 36-162)
T3 construct: Bought protein; also called Cat:11159-H08H; not shown: His tag
T3 sequence (looked up): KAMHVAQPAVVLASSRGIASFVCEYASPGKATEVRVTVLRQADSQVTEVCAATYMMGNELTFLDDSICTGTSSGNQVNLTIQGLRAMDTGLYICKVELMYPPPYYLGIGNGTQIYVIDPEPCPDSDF


Tests used:
人PD-L1-His重组蛋白 [1] = molecular target: T4, 人PD-L1-His重组蛋白 (human, UniProt Q9NZQ7 19-238); assay: BLI (Fortebio Octet QKe), antibody captured on AHC probe, human PD-L1-His 50 nM and 20 nM, 1:1 Langmuir fit
T4 construct: range 19-238; also called 人PD-L1胞外区结构域重组蛋白; 重组人PD-L1; not shown: His tag

人PD-L1-His重组蛋白 [2] = molecular target: T4, 人PD-L1-His重组蛋白; assay: BLI (Fortebio Octet QKe), antibody captured on AHC probe, human PD-L1-His 100 nM, 1:1 Langmuir fit
重组人CD28 = molecular target: T5, 重组人CD28 (human, UniProt P10747 19-152); assay: ELISA; protein coated at 2 ug/mL
T5 construct: Bought protein; also called Cat:11524-HCCH

B7H3-His = molecular target: T1, B7H3-His; assay: ELISA; protein coated at 2 ug/mL
PD-L2-hFc = molecular target: T2, PD-L2-hFc; assay: ELISA; protein coated at 2 ug/mL
CTLA4-His = molecular target: T3, CTLA4-His; assay: ELISA; protein coated at 2 ug/mL
人PD-L1/mFc重组蛋白 = molecular target: T6, 人PD-L1/mFc重组蛋白 (human, UniProt Q9NZQ7 19-238); assay: competition ELISA; PD-1-hFc coated, PD-L1-mFc 1 ug/mL, antibody titrated from 4.5 ug/mL
T6 construct: range 19-238; not shown: mouse Fc (mFc)

人PD-L1全长(细胞表面表达) [3] = molecular target: T7, 人PD-L1全长(细胞表面表达) (human, UniProt Q9NZQ7 19-290); assay: cell-based or functional assay
人PD-L1全长(细胞表面表达) [4] = molecular target: T7, 人PD-L1全长(细胞表面表达); assay: flow cytometry (MFI) on CHO-PD-L1-CD3L cells, antibody titrated from 30 ug/mL
人PD-L1-His重组蛋白 [5] = molecular target: T4, 人PD-L1-His重组蛋白; assay: BLI (Fortebio Octet QKe), antibody captured on AHC probe, human PD-L1-His 60 nM, 1:1 Langmuir fit

T4 sequence (Q9NZQ7 19-238 limits assumed): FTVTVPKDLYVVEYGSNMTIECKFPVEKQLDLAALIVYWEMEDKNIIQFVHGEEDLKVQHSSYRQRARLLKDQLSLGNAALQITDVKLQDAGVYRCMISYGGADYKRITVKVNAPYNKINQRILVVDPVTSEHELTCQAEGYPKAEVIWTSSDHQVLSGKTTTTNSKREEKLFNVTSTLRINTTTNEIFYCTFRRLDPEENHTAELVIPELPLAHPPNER
T5 sequence (P10747 19-152 limits assumed): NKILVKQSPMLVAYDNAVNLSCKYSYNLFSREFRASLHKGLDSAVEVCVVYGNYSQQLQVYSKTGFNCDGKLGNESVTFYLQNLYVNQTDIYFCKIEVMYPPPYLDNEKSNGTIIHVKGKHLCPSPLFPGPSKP
T6 sequence (Q9NZQ7 19-238 limits assumed): as the sequence (Q9NZQ7 19-238 limits assumed) above

Binder	Kd (人PD-L1-His重组蛋白 [2]) [nM]	further results
嵌合抗体Ch182 (antibody, human IgG1, V domains shown) VH: EVQLQQSGAELVKPGASVKLSCTVSGFNIKDIYMHWLKQRPEQGLEWIGRIDPANGNTKYDPKFQDKATMIADTSSNTAYLQLSSLTSEDTAVYYCASGQLGPLGFDYWGQGTTLTVSS VL: DIQMTQTTSSLSASLGDRVTISCRASQDISNYLNWYQQKPDGTVKLLIYYTSRLHSGVPSRFSGSGSGTDYSLTISNLEQEDIATYFCQQGNTLPYTFGGGTKLEIK	2.14	Kd (人PD-L1-His重组蛋白 [1]): ~2.02 nM
182鼠抗体 (antibody, V domains shown, Tested as hybridoma supernatant or as purified mouse antibody; also called m182) VH: EVQLQQSGAELVKPGASVKLSCTVSGFNIKDIYMHWLKQRPEQGLEWIGRIDPANGNTKYDPKFQDKATMIADTSSNTAYLQLSSLTSEDTAVYYCASGQLGPLGFDYWGQGTTLTVSS VL: DIQMTQTTSSLSASLGDRVTISCRASQDISNYLNWYQQKPDGTVKLLIYYTSRLHSGVPSRFSGSGSGTDYSLTISNLEQEDIATYFCQQGNTLPYTFGGGTKLEIK		binding result (重组人CD28): no binding (tested: 1ug/ml); binding result (B7H3-His): no binding (tested: 1ug/ml); binding result (PD-L2-hFc): no binding (tested: 1ug/ml); binding result (CTLA4-His): no binding (tested: 1ug/ml)
H182-MUT4 (antibody, human IgG1, kappa, V domains shown, also called h182-LCDR3-4+h182-HCDR2-3) VH: EVQLVQSGAEVKKPGATVKISCKVSGFNIKDIYMHWVQQAPGKGLEWMGRIDPANANTKYDPKFQDRVTITADTSTNTAYMELSSLRSEDTAVYYCASGQLGPLGFDYWGQGTTVTVSS VL: DIQMTQSPSSLSASVGDRVTITCRASQDISNYLNWYQQKPGKAPKLLLYYTSRLHSGVPSRFSGSGSGTDYTLTISSLQPEDFATYFCQQGAGRPYTFGGGTKVEIKR		IC50 (人PD-L1/mFc重组蛋白): 6.24 nM; ADCC EC50 (MDA-MB-231 target cells, NK92 effector cells, calcein release) (人PD-L1全长(细胞表面表达) [3]): 0.96 ng/mL; EC50 (人PD-L1全长(细胞表面表达) [4]): 0.658 nM; Kd (人PD-L1-His重组蛋白 [5]): 0.465 nM
182-3 (antibody, human IgG1, V domains shown, also called h182L1 + Ch182H) VH: EVQLQQSGAELVKPGASVKLSCTVSGFNIKDIYMHWLKQRPEQGLEWIGRIDPANGNTKYDPKFQDKATMIADTSSNTAYLQLSSLTSEDTAVYYCASGQLGPLGFDYWGQGTTLTVSS VL: DIQMTQSPSSLSASVGDRVTITCRASQDISNYLNWYQQKPGKAPKLLLYYTSRLHSGVPSRFSGSGSGTDYTLTISSLQPEDFATYYCQQGNTLPYTFGGGTKVEIKR	4.77	
182-5 (antibody, V domains shown) VH: EVQLVQSGAEVKKPGATVKISCKVSGFNIKDIYMHWVQQAPGKGLEWMGRIDPANGNTKYDPKFQDRVTITADTSTNTAYMELSSLRSEDTAVYYCASGQLGPLGFDYWGQGTTVTVSS VL: DIQMTQSPSSLSASVGDRVTITCRASQDISNYLNWYQQKPGKAPKLLLYYTSRLHSGVPSRFSGSGSGTDYTLTISSLQPEDFATYYCQQGNTLPYTFGGGTKVEIKR	3.43	

Further lines, with some results ahead:

Kd (人PD-L1-His重组蛋白 [2]) [nM]	Binder	further results
5.68	182-7 (antibody, V domains shown) VH: EVQLVQSGAEVKKPGATVKISCKVSGFNIKDIYMHWVQQAPGKGLEWMGRIDPANGNTKYDPKFQDRVTITADTSTDTAYMELSSLRSEDTAVYYCATGQLGPLGFDYWGQGTTVTVSS VL: DIQMTQSPSSLSASVGDRVTITCRASQDISNYLNWYQQKPGKAPKLLLYYTSRLHSGVPSRFSGSGSGTDYTLTISSLQPEDFATYFCQQGNTLPYTFGGGTKVEIKR	
3.64	h182 (antibody, V domains shown) VH: EVQLVQSGAEVKKPGATVKISCKVSGFNIKDIYMHWVQQAPGKGLEWMGRIDPANGNTKYDPKFQDRVTITADTSTNTAYMELSSLRSEDTAVYYCASGQLGPLGFDYWGQGTTVTVSS VL: DIQMTQSPSSLSASVGDRVTITCRASQDISNYLNWYQQKPGKAPKLLLYYTSRLHSGVPSRFSGSGSGTDYTLTISSLQPEDFATYFCQQGNTLPYTFGGGTKVEIKR	
8.19	182-4 (antibody, V domains shown) VH: EVQLVQSGAEVKKPGATVKISCKVSGFNIKDIYMHWVQQAPGKGLEWMGRIDPANGNTKYDPKFQDRVTITADTSTDTAYMELSSLRSEDTAVYYCATGQLGPLGFDYWGQGTTVTVSS VL: DIQMTQSPSSLSASVGDRVTITCRASQDISNYLNWYQQKPGKAPKLLLYYTSRLHSGVPSRFSGSGSGTDYTLTISSLQPEDFATYYCQQGNTLPYTFGGGTKVEIKR	
5.82	182-1 (antibody, V domains shown) VH: EVQLVQSGAEVKKPGATVKISCKVSGFNIKDIYMHWVQQAPGKGLEWMGRIDPANGNTKYDPKFQDRVTITADTSTDTAYMELSSLRSEDTAVYYCATGQLGPLGFDYWGQGTTVTVSS VL: DIQMTQTTSSLSASLGDRVTISCRASQDISNYLNWYQQKPDGTVKLLIYYTSRLHSGVPSRFSGSGSGTDYSLTISNLEQEDIATYFCQQGNTLPYTFGGGTKLEIKR	
1.93	182-2 (antibody, V domains shown) VH: EVQLVQSGAEVKKPGATVKISCKVSGFNIKDIYMHWVQQAPGKGLEWMGRIDPANGNTKYDPKFQDRVTITADTSTNTAYMELSSLRSEDTAVYYCASGQLGPLGFDYWGQGTTVTVSS VL: DIQMTQTTSSLSASLGDRVTISCRASQDISNYLNWYQQKPDGTVKLLIYYTSRLHSGVPSRFSGSGSGTDYSLTISNLEQEDIATYFCQQGNTLPYTFGGGTKLEIKR	
4.64	182-6 (antibody, human IgG1, V domains shown, also called h182L2 + Ch182H) VH: EVQLQQSGAELVKPGASVKLSCTVSGFNIKDIYMHWLKQRPEQGLEWIGRIDPANGNTKYDPKFQDKATMIADTSSNTAYLQLSSLTSEDTAVYYCASGQLGPLGFDYWGQGTTLTVSS VL: DIQMTQSPSSLSASVGDRVTITCRASQDISNYLNWYQQKPGKAPKLLLYYTSRLHSGVPSRFSGSGSGTDYTLTISSLQPEDFATYFCQQGNTLPYTFGGGTKVEIKR	
